From publication PMC6003625 (Journal of molecular biology, 2018) come the findings set out here.

The target in the experiment is Nup159-Dbp5-Mg2+mantADP complex (S. cerevisiae | , UniProt P20449 1-482; P40477 1-1460). Description: stopped-flow kinetics of mantADP dissociation.
Nup159-Dbp5-Mg2+mantADP complex, sequence (P20449 whole entry, chain 1 of 2): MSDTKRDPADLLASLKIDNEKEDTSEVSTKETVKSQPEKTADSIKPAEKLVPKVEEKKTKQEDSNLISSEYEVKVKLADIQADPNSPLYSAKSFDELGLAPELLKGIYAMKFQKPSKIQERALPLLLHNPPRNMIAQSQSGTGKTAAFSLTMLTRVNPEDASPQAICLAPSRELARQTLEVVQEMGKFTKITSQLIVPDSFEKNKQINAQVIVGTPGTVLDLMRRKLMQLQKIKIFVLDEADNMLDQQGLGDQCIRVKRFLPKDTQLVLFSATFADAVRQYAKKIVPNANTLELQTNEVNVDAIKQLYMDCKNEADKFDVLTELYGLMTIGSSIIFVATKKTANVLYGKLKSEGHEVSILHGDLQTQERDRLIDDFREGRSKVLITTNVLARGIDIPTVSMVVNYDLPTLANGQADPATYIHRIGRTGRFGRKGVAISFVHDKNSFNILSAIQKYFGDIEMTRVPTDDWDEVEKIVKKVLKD
Nup159-Dbp5-Mg2+mantADP complex, sequence (P40477 whole entry, chain 2 of 2): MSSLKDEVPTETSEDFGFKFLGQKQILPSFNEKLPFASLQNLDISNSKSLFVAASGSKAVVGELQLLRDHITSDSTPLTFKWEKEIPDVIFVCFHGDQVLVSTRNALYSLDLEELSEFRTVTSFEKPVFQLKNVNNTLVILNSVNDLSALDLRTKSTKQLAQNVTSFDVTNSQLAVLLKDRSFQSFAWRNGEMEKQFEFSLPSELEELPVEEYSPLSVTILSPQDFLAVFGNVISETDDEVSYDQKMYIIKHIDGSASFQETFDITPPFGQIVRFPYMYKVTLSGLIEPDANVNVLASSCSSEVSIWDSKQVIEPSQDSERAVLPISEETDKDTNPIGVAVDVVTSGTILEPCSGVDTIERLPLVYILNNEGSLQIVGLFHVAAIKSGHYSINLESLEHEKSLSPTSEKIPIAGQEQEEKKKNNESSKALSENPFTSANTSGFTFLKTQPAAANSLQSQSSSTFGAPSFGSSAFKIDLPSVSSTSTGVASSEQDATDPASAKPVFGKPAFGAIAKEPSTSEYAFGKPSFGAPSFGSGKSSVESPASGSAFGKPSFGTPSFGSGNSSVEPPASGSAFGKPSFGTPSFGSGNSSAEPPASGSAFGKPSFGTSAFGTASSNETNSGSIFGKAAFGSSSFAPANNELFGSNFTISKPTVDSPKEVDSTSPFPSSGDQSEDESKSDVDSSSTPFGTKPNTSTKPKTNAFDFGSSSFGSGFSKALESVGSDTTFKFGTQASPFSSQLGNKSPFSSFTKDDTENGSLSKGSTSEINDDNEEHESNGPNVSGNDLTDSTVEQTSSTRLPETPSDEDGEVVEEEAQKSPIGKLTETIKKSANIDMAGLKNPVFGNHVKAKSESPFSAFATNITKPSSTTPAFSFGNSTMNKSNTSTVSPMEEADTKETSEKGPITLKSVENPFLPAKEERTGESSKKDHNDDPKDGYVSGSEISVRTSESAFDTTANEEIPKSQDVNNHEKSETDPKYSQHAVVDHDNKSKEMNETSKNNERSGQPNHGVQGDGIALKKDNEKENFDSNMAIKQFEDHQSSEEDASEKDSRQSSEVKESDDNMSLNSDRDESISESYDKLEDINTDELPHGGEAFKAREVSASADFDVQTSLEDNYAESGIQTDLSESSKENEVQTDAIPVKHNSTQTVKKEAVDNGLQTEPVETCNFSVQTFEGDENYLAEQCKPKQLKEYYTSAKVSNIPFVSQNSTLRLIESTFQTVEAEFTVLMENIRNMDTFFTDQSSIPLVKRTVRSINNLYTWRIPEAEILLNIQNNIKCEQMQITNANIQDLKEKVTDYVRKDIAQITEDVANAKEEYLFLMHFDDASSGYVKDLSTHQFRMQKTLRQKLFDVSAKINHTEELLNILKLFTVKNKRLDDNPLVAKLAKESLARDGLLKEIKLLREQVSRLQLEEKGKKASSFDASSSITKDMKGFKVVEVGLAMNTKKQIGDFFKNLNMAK

B1: Gle1 (natural protein, UniProt Q12315 1-538, looked up)
chain: MRFVFDEVFNSDTDSPEFEETCSTTSSTSSQCPTPEPSPAIKLPSFTKVGTKKLVNESVVILDPALENALRDLNLQSKLIPINEPIVAASSIIVPHSTNMPLPRASHSSLLDNAKNSNATAPLLEAIEESFQRKMQNLVLANQKEIQSIRENKRRVEEQRKRKEEEERKRKEAEEKAKREQELLRQKKDEEERKRKEAEAKLAQQKQEEERKKIEEQNEKERQLKKEHEAKLLQQKDKLGKAVTNFDKISKMFWHYKDKIAQIKQDIVLPIKKADVNVRNLLSRHKRKINPKFGQLTNSNQQLFKIQNELTQLINDTKGDSLAYHWILNFIAKAVVHQAETEVRVKPESALPLGKLTLYLLVQFPELQELFMARLVKKCPFVIGFTCEIDTEKGRQNMGWKRNNENKWEDNTSYDERMGGILSLFAIITRLQLPQEFITTTSHPFPIALSWHILARICNTPLNLITNTHFVILGSWWDAAAVQFLQAYGNQASKLLILIGEELTSRMAEKKYVGAARLRILLEAWQNNNMESFPEMSP
B1 displayed a Kd of 1800 nM.
